Reference: US20220332804A1 (CSL INNOVATION, published 2022)

Tests used:
Test in all cases: SPR, antibody captured, C2 as analyte;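 also: biacore SPR at 37 °C, anti-C2 mAbs captured via goat anti-human IgG on CM5 chips, double-referenced sensorgrams fit to a 1:1 kinetic or steady-state model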
human C2 N471A = target: T1, human C2 N471A (human, UniProt P06681 21-752)
T1 sequence: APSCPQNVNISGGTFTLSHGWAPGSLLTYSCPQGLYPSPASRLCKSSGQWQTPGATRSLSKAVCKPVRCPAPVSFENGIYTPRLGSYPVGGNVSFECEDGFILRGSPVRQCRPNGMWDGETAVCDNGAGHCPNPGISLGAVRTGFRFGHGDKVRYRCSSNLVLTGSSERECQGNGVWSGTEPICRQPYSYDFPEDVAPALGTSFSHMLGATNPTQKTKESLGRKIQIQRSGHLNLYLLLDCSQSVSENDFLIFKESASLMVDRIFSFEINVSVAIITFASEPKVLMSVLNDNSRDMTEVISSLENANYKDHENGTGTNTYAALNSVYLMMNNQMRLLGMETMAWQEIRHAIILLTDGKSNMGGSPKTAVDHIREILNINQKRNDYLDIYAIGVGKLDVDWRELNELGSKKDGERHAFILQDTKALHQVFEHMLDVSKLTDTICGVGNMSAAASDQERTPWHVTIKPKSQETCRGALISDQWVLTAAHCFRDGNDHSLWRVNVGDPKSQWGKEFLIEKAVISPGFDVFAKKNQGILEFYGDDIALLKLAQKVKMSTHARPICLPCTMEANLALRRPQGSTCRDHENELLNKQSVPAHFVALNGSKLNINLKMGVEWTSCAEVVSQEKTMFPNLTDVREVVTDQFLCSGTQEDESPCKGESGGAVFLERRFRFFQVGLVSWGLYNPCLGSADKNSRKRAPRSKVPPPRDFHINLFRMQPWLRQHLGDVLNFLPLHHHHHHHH

human C2 K550A = target: T2, human C2 K550A (human, UniProt P06681 21-752)
T2 sequence: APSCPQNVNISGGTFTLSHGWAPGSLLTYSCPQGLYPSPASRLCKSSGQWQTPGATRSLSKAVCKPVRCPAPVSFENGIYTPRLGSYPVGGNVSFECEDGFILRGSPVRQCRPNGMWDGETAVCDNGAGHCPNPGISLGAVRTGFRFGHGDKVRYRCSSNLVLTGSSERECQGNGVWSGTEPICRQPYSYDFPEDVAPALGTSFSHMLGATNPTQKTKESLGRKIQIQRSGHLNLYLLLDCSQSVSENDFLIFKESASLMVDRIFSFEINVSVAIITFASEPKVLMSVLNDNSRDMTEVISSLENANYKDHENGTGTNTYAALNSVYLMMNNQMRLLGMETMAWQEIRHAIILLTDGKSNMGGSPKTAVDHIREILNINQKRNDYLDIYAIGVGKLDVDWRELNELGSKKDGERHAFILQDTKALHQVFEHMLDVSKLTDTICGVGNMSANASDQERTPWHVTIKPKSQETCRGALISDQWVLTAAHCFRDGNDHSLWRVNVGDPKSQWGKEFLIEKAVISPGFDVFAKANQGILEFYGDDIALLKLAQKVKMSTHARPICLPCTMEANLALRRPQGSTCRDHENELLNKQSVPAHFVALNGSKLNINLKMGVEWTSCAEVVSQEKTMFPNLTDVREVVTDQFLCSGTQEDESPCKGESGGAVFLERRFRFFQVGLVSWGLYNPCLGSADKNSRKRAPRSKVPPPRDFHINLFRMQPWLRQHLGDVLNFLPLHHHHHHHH

human C2 K244A = target: T3, human C2 K244A (human, UniProt P06681 21-752)
T3 sequence: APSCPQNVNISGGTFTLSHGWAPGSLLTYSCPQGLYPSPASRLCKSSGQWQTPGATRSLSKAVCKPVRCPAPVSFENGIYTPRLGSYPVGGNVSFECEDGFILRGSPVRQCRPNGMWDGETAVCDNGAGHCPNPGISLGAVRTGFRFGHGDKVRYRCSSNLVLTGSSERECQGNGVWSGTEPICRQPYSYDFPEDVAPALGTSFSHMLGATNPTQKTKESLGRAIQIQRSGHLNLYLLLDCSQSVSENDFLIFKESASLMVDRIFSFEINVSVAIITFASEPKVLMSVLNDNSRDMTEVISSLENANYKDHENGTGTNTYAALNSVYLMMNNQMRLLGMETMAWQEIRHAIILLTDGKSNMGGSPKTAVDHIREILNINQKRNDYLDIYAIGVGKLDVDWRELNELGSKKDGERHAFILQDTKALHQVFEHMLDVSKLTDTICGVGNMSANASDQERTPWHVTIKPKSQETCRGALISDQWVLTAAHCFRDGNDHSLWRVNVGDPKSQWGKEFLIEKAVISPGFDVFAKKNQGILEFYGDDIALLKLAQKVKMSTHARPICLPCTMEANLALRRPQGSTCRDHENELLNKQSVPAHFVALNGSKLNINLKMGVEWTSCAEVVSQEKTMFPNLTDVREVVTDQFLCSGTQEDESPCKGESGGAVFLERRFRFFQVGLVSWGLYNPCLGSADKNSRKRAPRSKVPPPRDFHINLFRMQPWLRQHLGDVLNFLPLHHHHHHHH

human C2 N403A = target: T4, human C2 N403A (human, UniProt P06681 21-752)
T4 sequence: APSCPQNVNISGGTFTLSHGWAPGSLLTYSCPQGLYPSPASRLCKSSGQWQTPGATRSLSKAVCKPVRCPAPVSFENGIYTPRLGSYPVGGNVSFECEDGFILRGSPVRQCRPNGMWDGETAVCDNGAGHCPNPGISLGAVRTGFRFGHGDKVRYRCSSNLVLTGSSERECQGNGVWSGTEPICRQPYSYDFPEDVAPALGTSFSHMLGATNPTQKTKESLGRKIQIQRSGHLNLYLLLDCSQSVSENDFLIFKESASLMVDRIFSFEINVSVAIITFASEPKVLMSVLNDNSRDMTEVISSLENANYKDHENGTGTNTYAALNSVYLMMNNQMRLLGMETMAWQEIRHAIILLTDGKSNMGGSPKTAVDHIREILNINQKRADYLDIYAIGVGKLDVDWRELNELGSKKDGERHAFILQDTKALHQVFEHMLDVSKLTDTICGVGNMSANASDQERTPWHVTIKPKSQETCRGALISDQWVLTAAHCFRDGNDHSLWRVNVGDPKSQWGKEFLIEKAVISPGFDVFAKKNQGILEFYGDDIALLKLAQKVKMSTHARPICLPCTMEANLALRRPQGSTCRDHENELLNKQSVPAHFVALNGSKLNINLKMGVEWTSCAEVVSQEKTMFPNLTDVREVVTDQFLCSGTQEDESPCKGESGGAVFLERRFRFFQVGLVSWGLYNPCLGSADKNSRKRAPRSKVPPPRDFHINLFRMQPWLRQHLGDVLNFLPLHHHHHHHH

B1: RF16-226 (antibody, human IgG4 S228P, lambda)
heavy: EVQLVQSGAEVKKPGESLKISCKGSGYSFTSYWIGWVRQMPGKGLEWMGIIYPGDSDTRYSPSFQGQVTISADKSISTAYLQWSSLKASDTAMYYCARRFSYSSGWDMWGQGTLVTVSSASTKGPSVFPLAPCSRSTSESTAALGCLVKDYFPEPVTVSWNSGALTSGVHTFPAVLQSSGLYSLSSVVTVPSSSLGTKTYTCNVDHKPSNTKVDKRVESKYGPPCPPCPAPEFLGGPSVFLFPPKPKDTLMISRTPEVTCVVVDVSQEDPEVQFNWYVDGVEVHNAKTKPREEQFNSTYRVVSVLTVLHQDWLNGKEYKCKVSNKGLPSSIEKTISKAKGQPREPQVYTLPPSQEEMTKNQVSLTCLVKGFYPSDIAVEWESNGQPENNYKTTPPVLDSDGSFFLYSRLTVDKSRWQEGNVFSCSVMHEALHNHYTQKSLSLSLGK
light: SYELTQPPSVSVSPGQTARITCSGDALTSKYVAWYQQKSGLAPLLVIYEDTRRPSGIPAKFSGSSSGSVATLTISGAHGDDEADYYCYSTDASGHQRVFGGGTKLTVLSQPKAAPSVTLFPPSSEELQANKATLVCLISDFYPGAVTVAWKADGSPVKAGVETTKPSKQSNNKYAASSYLSLTPEQWKSHRSYSCQVTHEGSTVEKTVAPTECS
notes: pH-dependent anti-C2 antibody from a phage display library; also called WT
Human C2 N471A
  Kd: 9.7 nM
Human C2 K550A
  Kd: 15 nM
Human C2 K244A
  Kd: 22.7 nM
Human C2 N403A
  Kd: 10.5 nM
